Source: article PMC3568928 (Journal of molecular biology, 2011)
“And” between values parts separate entries of the source, which are not always exact repeats. Equal entries are not always repeated.

T1: htt^NTQ25K2 (Phe→Trp replacement at position 17 (stands in the printed letters))
T1 peptide: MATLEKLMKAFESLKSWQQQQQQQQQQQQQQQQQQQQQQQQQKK

T2: htt^NTQ15K2 (Phe→Trp replacement at position 17 (stands in the printed letters))
T2 peptide: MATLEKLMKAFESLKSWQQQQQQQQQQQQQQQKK

B1: htt^NTQ10K2 (peptide)
peptide: MATLEKLMKAFESLKSFQQQQQQQQQQKK

Assays:
AUC = molecular target: the molecule itself; test: AUC
htt^NTQ10K2 = molecular target: B1; test: seeded elongation, HPLC sedimentation assay
htt^NTQ25K2 = molecular target: T1, htt^NTQ25K2; test: seeded elongation, HPLC sedimentation assay
htt^NTQ15K2 = molecular target: T2, htt^NTQ15K2; test: seeded elongation, HPLC sedimentation assay

Binder | stoichiometry N (AUC) | pseudo-first-order rate constant of seeded elongation (htt^NTQ10K2) [h⁻¹] | pseudo-first-order rate constant of seeded elongation (htt^NTQ25K2) [h⁻¹] | pseudo-first-order rate constant of seeded elongation (htt^NTQ15K2) [h⁻¹]
B1 | ~4 and ~8 and ~12 | – | – | –
htt^NTQ37P10K2 (peptide) peptide: MATLEKLMKAFESLKSWQQQQQQQQQQQQQQQQQQQQQQQQQQQQQQQQQQQQQPPPPPPPPPPKK | – | 0.249 | 0.316 | 0.236
